According to patent publication US20190359719A1 (SORRENTO THERAPEUTICS, published 2019):
Where a chain is given by its changes, count along the chain named.

B1: El-A10 (E1 derived anti-c-Met antibody) (antibody, V domains shown)
VH: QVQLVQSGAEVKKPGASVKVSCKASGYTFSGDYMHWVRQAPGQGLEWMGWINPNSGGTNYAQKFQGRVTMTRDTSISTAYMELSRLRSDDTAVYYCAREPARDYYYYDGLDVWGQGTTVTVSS
VL: QSVVTQPPSVSGAPGQRVTISCLGSASNIGAGHDVHWYQQLPGTAPKLLIYGNSNRPSGVPDRFSGSKSGTSASLAITGLQAEDEADYYCQSYSSSLSAYVFGTGTKVTVL
notes: The two labels are matched by their suffix only; Detected with anti-human IgG (gamma-chain specific); also called E1-A10; GCE-A10
B2: El-A18 (E1 derived anti-c-Met antibody) (antibody, V domains shown)
VH: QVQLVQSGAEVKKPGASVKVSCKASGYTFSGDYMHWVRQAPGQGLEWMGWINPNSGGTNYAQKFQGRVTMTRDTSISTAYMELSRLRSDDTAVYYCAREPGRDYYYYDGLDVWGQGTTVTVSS
VL: B1 VL with L23I
notes: Label 'El-A18' matched to 'GCE-A18' by suffix only; Detected with anti-human IgG; also called E1-A18; GCE-A18
B3: El-A14 (E1 derived anti-c-Met antibody) (antibody, V domains shown)
VH: QVQLVQSGAEVKKPGASVKVSCKASGYTFSGDYIHWVRQAPGQGLEWMGWINPNSGGTNYAQKFQGRVTMTRDTSISTAYMELSRLRSDDTAVYYCAREPARDYYYYDGLDVWGQGTTVTVSS
VL: B1 VL with L23I, A26S
notes: Label 'El-A14' matched to 'GCE-A14' by suffix only; Detected with anti-human IgG; also called E1-A14; GCE-A14
B4: El-B13 (E1 derived anti-c-Met antibody) (antibody, V domains shown)
VH: B3 VH with Y27S
VL: B1 VL with Y100V, V101L
notes: Label 'El-B13' matched to 'GCE-B13' by suffix only; Detected with anti-human IgG; also called E1-B13; GCE-B13
B5: El-BR1 (E1 derived anti-c-Met antibody) (antibody, V domains shown)
VH: B3 VH with Y27S, I34L
VL: B1 VL with H33Y, Y100V, V101L
notes: Label 'El-BR1' matched to 'GCE-BR1' by suffix only; Detected with anti-human IgG; also called E1-BR1; GCE-BR1
B6: El-A11 (E1 derived anti-c-Met antibody) (antibody, V domains shown)
VH: B3 VH with Y27F
VL: B1 VL with A26S, P57I, V101L
notes: Label 'El-A11' matched to 'GCE-A11' by suffix only; Detected with anti-human IgG; also called E1-A11; GCE-A11
B7: El-A13 (E1 derived anti-c-Met antibody) (antibody, V domains shown)
VH: B3 VH with I34L
VL: B1 VL
notes: Label 'El-A13' matched to 'GCE-A13' by suffix only; Detected with anti-human IgG; also called E1-A13; GCE-A13
B8: El-B19 (E1 derived anti-c-Met antibody) (antibody, V domains shown)
VH: B3 VH with Y27F, A101G
VL: B1 VL with Y100V, V101L
notes: Label 'El-B19' matched to 'GCE-B19' by suffix only; Detected with anti-human IgG; also called E1-B19; GCE-B19
B9: El-B11 (E1 derived anti-c-Met antibody) (antibody, V domains shown)
VH: B3 VH
VL: B1 VL with L23I, A26S, H33Y, P57I, Y100V, V101L
notes: Label 'El-B11' matched to 'GCE-B11' by suffix only; Detected with anti-human IgG; also called E1-B11; GCE-B11
B10: A1-24 anti-c-Met antibody (antibody, V domains shown)
VH: QVQLQESGPGLVKPSQTLSLTCTVSGGSISSGGYYWSWIRQHPGKGLEWIGESTHSGSTNYNPSLESRVTISVDTSKNQFSLKLSSVTAADTAVYYCARGRDSYDFDAWGQGTLVTVSS
VL: LPVLTQPASVSGSPGQSITISCTGTSFDVGGYNYVSWYQQHPGKAPKLMIYDVSDRPSGVSTRFSGSKSGNTASLTISGLQAEDEADYYCSSFRSSAALVVFGGGTKLTVL
notes: Detected with anti-human IgG (gamma-chain specific)
B11: A1-4 anti-c-Met antibody (antibody, V domains shown)
VH: B10 VH with T54S, E66K, S103G, D105Y
VL: B10 VL with F27S, N33P, D52V, F93Y, A97S, K107Q
notes: as for B10
B12: A1-32 anti-c-Met antibody (antibody, V domains shown)
VH: B10 VH with E66D, S103G, D105Y, F106L, A108Q
VL: B10 VL with N33P
notes: as for B10
B13: A1-9 anti-c-Met antibody (antibody, V domains shown)
VH: B10 VH with S53I, T54S, E66K, S103G, D105Y, F106L, A108Q
VL: B10 VL with F27S, D52N, A97S
notes: as for B10
B14: A1-2 anti-c-Met antibody (antibody, V domains shown)
VH: B10 VH with E66K, S103G
VL: B10 VL with A97S
notes: as for B10
B15: A1-6 anti-c-Met antibody (antibody, V domains shown)
VH: B10 VH with S53I, E66K, S103G, F106I
VL: B10 VL with F27W, N33P, F93Y, S96V, A97S
notes: as for B10

Each binder was assayed against T1, c-Met (HGF receptor) expressed on cells (human, UniProt P08581 25-1390) (assay: flow cytometry, antibody titration on HUVEC cells, PE anti-human IgG).
T1 construct: whole, on cells; Endogenous c-Met on tumour cell lines and on human umbilical vein endothelial cells
T1 sequence (P08581 25-1390): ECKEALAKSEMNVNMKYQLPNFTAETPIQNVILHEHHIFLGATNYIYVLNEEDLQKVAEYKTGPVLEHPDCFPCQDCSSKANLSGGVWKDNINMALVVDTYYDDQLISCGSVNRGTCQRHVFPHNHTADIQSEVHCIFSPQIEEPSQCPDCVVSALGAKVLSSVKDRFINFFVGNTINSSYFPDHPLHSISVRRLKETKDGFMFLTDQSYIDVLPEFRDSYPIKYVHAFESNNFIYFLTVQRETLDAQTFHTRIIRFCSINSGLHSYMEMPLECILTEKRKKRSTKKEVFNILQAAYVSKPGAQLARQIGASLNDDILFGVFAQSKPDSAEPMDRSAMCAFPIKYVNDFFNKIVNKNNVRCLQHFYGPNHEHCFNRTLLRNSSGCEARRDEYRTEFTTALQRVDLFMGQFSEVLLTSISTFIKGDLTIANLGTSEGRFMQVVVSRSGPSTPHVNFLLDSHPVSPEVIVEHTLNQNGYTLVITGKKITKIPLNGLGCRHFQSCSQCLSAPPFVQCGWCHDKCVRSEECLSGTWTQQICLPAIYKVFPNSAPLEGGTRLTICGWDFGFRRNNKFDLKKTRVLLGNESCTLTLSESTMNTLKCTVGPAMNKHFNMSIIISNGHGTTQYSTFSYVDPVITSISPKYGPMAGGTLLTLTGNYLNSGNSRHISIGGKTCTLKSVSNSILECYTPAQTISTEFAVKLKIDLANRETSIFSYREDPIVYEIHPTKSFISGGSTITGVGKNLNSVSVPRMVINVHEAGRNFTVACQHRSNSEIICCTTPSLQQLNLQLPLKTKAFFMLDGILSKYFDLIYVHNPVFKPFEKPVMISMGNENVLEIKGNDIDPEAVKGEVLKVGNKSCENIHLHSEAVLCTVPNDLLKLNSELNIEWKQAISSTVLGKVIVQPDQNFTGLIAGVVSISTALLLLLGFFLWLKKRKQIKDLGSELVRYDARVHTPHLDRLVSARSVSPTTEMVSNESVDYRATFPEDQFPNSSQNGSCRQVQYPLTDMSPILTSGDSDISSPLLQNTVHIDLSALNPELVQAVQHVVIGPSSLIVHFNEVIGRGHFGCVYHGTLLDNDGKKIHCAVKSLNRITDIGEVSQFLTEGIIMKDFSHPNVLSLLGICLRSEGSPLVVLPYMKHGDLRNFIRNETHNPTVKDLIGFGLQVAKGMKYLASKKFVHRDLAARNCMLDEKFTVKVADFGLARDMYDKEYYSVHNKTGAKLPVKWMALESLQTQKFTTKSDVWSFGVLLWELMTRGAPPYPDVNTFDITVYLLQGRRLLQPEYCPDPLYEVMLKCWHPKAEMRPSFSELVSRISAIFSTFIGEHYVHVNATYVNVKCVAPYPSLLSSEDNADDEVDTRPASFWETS
Description: (§1) This example illustrates in vitro data for anti-c-Met antibody cellular binding EC₅₀ measurements. […] In this example, DU-145 prostate cancer cells, SK-O-V3 ovarian cancer cells, or human umbilical vein endothelial cells (HUVEC) were aliquoted into the wells of a 96-well, v-bottom plate in FACS Buffer (PBS+2% FBS). A 16-point, 2 fold serial dilution curve of antibodies made in FACS Buffer was used to stain the cells. After 1 hr incubation, cells were washed 2× with FACS Buffer and resuspended in PE-conjugated, goat anti-human IgG (γ-chain specific) secondary antibody (Southern Biotech Cat #2040-09). Cells were further incubated for 0.5 hr and then washed 1× with FACS Buffer. Cells were resuspended in FACS Buffer and the median fluorescence intensity in the FL2-A channel was determined using the Intellicyt® HTFC flow cytometer. Data was collected and analyzed on the Intellicyt® HTFC flow cytometer using the ForeCyt® software. ND=Not Determined.
With B1 the EC50 was 0.148 nM.
B2 was tested, and the EC50 was 0.606 nM.
B3 was tested, and the EC50 was 0.132 nM.
Work on B4 yielded an EC50 of 0.19 nM.
For B5, the EC50 was 0.376 nM.

What follows are binders tested against T1, c-Met (HGF receptor) expressed on cells (assay: flow cytometry, antibody titration on SK-O-V3 ovarian cancer cells, PE anti-human IgG).
Description: as §1
B1 was tested, and the EC50 was 0.153 nM.
B2 gave an EC50 of 1.15 nM.
For B6, the EC50 was 0.2 nM.
B3 gave an EC50 of 0.12 nM.
B7 was tested, and the EC50 was 0.159 nM.
Binder B4 has an EC50 of 0.191 nM.
B5 showed an EC50 of 0.467 nM.
In the case of B8, the EC50 is reported as 0.852 nM.
In the case of B9, the EC50 is reported as 0.41 nM.

The binders below were run against T1, c-Met (HGF receptor) expressed on cells (assay: flow cytometry, antibody titration on DU-145 prostate cancer cells, PE anti-human IgG).
Description: as §1, with “cells or” for “cells,”, “cancer” for “cancer cells, or human umbilical vein endothelial”, “cells” for “cells (HUVEC)”, “Determined” for “Determined.”
B10 gave an EC50 of 0.003 nM.
B11 was tested, and the EC50 was 0.017 nM.
B12 showed an EC50 of 0.064 nM.
B13 gave an EC50 of 0.058 nM.

Target: T1, c-Met (HGF receptor) expressed on cells
Assay: flow cytometry, antibody titration on SK-O-V3 ovarian cancer cells, PE anti-human IgG
Remark: another data set of the same source
Description: as §1, with “cells or” for “cells,”, “cancer” for “cancer cells, or human umbilical vein endothelial”, “cells” for “cells (HUVEC)”, “Determined” for “Determined.”
B14 showed an EC50 of 0.223 nM.
Work on B15 yielded an EC50 of 0.053 nM.
B10 showed an EC50 of 0.135 nM.
B11 was tested, and the EC50 was 0.054 nM.
Binder B12 has an EC50 of 0.109 nM.
In the case of B13, the EC50 is reported as 0.076 nM.

Target: T1, c-Met (HGF receptor) expressed on cells
Assay: flow cytometry, antibody titration on DU-145 prostate cancer cells, PE anti-human IgG
Remark: another data set of the same source
Description: as §1
For B1, the EC50 was 0.2 nM.
Work on B6 yielded an EC50 of 0.26 nM.
Binder B3 has an EC50 of 0.212 nM.
B7 gave an EC50 of 0.362 nM.
With B4 the EC50 was 0.251 nM.
Binder B5 has an EC50 of 3.36 nM.
For B8, the EC50 was 3.35 nM.
B9 showed an EC50 of 0.34 nM.
